# T1: APBA1_1, Q02410
# T1 sequence (Q02410 651-752, limits assumed, looked up): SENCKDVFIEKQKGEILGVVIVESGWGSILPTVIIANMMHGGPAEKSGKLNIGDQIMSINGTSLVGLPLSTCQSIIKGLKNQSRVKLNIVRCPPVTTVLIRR
# T2: MPDZ_12, O75970
# T2 sequence (O75970 1857-1958, limits assumed, looked up): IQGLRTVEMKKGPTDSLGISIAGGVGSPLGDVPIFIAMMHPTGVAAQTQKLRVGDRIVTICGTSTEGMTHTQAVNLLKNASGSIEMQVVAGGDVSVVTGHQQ
# T3: SHANK1, Q9Y566
# T3 sequence (Q9Y566 658-767, limits assumed, looked up): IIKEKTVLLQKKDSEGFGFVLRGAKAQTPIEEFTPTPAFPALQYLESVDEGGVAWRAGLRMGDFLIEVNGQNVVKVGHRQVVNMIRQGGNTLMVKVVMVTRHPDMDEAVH
# T4: PARD3B_1, Q8TEW8
# T4 sequence (Q8TEW8 196-299, limits assumed, looked up): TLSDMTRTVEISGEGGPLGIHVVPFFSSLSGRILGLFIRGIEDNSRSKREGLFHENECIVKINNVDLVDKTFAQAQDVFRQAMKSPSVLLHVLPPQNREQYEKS
# T5: APBA2_1, Q99767
# T5 sequence (Q99767 563-664, limits assumed, looked up): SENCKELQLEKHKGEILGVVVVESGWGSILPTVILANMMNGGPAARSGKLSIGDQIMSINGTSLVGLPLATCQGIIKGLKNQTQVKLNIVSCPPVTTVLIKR
# T6: RAPGEF6, Q8TEU7
# T6 sequence (Q8TEU7 525-625, limits assumed, looked up): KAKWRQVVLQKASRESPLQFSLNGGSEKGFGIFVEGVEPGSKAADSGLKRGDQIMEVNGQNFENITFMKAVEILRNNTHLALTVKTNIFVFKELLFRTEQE
# T7: MPDZ_5, O75970
# T7 sequence (O75970 695-796, limits assumed, looked up): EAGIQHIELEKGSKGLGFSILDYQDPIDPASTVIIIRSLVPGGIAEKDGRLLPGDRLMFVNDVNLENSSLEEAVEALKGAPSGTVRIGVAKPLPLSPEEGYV
# T8: MPDZ_10, O75970
# T8 sequence (O75970 1624-1722, limits assumed, looked up): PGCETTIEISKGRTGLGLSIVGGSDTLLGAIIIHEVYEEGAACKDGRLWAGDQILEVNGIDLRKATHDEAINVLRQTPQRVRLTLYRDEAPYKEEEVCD
# T9: ARHGAP21, Q5T5U3
# T9 sequence (Q5T5U3 45-169, limits assumed, looked up): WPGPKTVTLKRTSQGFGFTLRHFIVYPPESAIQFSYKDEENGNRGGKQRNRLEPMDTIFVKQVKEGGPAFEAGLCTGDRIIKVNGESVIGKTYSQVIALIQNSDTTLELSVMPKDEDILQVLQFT
# T10: RADIL, Q96JH8
# T10 sequence (Q96JH8 971-1071, limits assumed, looked up): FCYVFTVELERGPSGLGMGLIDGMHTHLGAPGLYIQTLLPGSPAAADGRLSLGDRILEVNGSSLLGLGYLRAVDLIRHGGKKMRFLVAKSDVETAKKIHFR
# Legend:
# Assay in all cases: holdup assay
# Set-up in all cases: key: below the threshold = too weak to quantify, mostly under pKd 3.1 to 4
# MAGI2_4, Q86UL8 = target: MAGI2_4, Q86UL8
# Chain of MAGI2_4, Q86UL8 (Q86UL8 772-865): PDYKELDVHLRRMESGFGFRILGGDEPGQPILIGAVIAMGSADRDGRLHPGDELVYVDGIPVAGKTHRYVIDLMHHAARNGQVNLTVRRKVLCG
# GOPC, Q9HD26 = target: GOPC, Q9HD26
# APBA1_1, Q02410 = target: T1, APBA1_1, Q02410
# FRMPD2_2, Q68DX3 = target: FRMPD2_2, Q68DX3
# Chain of FRMPD2_2, Q68DX3 (Q68DX3 944-1038): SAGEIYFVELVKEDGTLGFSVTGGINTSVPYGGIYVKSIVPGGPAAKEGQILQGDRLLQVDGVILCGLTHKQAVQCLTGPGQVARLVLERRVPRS
# MPDZ_12, O75970 = target: T2, MPDZ_12, O75970
# MAGI3_2, Q5TCQ9 = target: MAGI3_2, Q5TCQ9
# Chain of MAGI3_2, Q5TCQ9 (Q5TCQ9 398-503): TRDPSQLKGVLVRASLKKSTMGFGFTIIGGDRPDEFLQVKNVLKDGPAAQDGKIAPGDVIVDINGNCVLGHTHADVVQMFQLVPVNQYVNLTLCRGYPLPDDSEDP
# NHERF4_2, Q86UT5 = target: NHERF4_2, Q86UT5
# Chain of NHERF4_2, Q86UT5 (Q86UT5 220-308): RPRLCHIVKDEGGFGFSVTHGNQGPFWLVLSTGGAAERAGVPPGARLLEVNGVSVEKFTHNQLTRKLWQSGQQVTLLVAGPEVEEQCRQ
# LNX1_1, Q8TBB1 = target: LNX1_1, Q8TBB1
# Chain of LNX1_1, Q8TBB1 (Q8TBB1 261-371): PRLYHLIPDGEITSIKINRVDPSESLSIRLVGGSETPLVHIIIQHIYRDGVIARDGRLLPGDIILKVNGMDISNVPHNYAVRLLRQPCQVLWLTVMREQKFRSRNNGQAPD
# SHANK1, Q9Y566 = target: T3, SHANK1, Q9Y566
# PARD3B_1, Q8TEW8 = target: T4, PARD3B_1, Q8TEW8
# AHNAK1, Q09666 = target: AHNAK1, Q09666
# Chain of AHNAK1, Q09666 (Q09666 4-100): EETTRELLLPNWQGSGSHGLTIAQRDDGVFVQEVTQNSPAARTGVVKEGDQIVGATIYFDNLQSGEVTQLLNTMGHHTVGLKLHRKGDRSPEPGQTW
# Inadl_9, Q8NI35 = target: Inadl_9, Q8NI35
# Chain of Inadl_9, Q8NI35 (Q8NI35 1530-1615): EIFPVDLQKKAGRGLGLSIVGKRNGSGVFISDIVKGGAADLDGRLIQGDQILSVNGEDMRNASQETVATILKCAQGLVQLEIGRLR
# DLG5_1, Q8TDM6 = target: DLG5_1, Q8TDM6
# Chain of DLG5_1, Q8TDM6 (Q8TDM6 617-713): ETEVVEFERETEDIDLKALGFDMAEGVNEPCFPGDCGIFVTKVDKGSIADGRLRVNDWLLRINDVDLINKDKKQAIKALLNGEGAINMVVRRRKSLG
# SCRIB_1, Q14160 = target: SCRIB_1, Q14160
# Chain of SCRIB_1, Q14160 (Q14160 718-814): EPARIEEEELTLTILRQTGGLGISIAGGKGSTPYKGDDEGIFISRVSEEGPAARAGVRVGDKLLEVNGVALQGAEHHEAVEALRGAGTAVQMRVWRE
# NHERF4_1, Q86UT5-2 = target: NHERF4_1, Q86UT5-2
# Chain of NHERF4_1, Q86UT5-2 (Q86UT5 other isoform, or with tags, fused parts or gaps): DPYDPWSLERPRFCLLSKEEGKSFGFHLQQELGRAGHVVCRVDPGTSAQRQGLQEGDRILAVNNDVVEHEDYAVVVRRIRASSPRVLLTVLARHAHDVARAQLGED
# GRID2IP_1, A4D2P6 = target: GRID2IP_1, A4D2P6
# Chain of GRID2IP_1, A4D2P6 (A4D2P6 1-87): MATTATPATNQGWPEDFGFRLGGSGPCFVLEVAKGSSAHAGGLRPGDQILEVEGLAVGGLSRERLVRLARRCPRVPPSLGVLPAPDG
# APBA2_1, Q99767 = target: T5, APBA2_1, Q99767
# RAPGEF6, Q8TEU7 = target: T6, RAPGEF6, Q8TEU7
# MPDZ_5, O75970 = target: T7, MPDZ_5, O75970
# GRASP, Q7Z6J2 = target: GRASP, Q7Z6J2
# Chain of GRASP, Q7Z6J2 (Q7Z6J2 96-193): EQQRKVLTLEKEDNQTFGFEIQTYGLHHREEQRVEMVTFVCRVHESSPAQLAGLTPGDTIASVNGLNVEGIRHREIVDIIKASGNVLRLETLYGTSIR
# DLG1_3, Q12959 = target: DLG1_3, Q12959
# Chain of DLG1_3, Q12959 (Q12959 457-571): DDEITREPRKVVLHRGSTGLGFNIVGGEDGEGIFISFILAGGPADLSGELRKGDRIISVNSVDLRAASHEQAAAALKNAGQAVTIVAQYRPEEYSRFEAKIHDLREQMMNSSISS
# IL16_1, Q14005 = target: IL16_1, Q14005
# Chain of IL16_1, Q14005 (Q14005 210-306): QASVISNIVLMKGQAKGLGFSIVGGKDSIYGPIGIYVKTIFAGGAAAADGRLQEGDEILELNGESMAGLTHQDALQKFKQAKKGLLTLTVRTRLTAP
# MPDZ_10, O75970 = target: T8, MPDZ_10, O75970
# ARHGAP21, Q5T5U3 = target: T9, ARHGAP21, Q5T5U3
# LAP2, Q96RT1 = target: LAP2, Q96RT1
# Chain of LAP2, Q96RT1 (Q96RT1 other isoform, or with tags, fused parts or gaps): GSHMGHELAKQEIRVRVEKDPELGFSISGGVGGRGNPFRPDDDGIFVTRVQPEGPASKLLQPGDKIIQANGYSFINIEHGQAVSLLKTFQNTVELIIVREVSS
# RADIL, Q96JH8 = target: T10, RADIL, Q96JH8
# [1] = plain residues with an end cap or a label only (N-terminal biotin on a linker: ahx)
# [2] = plain residues with an end cap or a label only (N-terminal biotin on a linker: gsgsgs; C-terminal amide)
# [3] = plain residues with an end cap or a label only (N-terminal biotin on a linker: ttds)
# [4] = plain residues with an end cap or a label only (N-terminal biotin on a linker: none)
binder,measurement,setting,value
"TVICWPGSLV [LNX2, Q8N448]",pKd,"MAGI2_4, Q86UL8; [1]",5.22
same,pKd,"GOPC, Q9HD26; [1]",4.33
same,pKd,"APBA1_1, Q02410; [1]",below the threshold
same,pKd,"FRMPD2_2, Q68DX3; [1]",3.85
same,pKd,"MPDZ_12, O75970; [1]",3.84
same,pKd,"MAGI3_2, Q5TCQ9; [1]",4.58
same,pKd,"NHERF4_2, Q86UT5; [1]",below the threshold
same,pKd,"LNX1_1, Q8TBB1; [1]",4.79
same,pKd,"SHANK1, Q9Y566; [1]",3.48
same,pKd,"PARD3B_1, Q8TEW8; [1]",3.99
same,pKd,"AHNAK1, Q09666; [1]",below the threshold
same,pKd,"Inadl_9, Q8NI35; [1]",3.99
same,pKd,"DLG5_1, Q8TDM6; [1]",below the threshold
same,pKd,"SCRIB_1, Q14160; [1]",below the threshold
same,pKd,"NHERF4_1, Q86UT5-2; [1]",3.55
same,pKd,"GRID2IP_1, A4D2P6; [1]",below the threshold
same,pKd,"APBA2_1, Q99767; [1]",below the threshold
same,pKd,"RAPGEF6, Q8TEU7; [1]",below the threshold
same,pKd,"MPDZ_5, O75970; [1]",4.03
same,pKd,"GRASP, Q7Z6J2; [1]",4.59
same,pKd,"DLG1_3, Q12959; [1]",4.32
same,pKd,"IL16_1, Q14005; [1]",4.54
same,pKd,"MPDZ_10, O75970; [1]",3.9
same,pKd,"ARHGAP21, Q5T5U3; [1]",below the threshold
same,pKd,"LAP2, Q96RT1; [1]",3.86
same,pKd,"RADIL, Q96JH8; [1]",4.91
"VSVDDVRSTSQGLSSY [DFNB31_int, Q9P202]",pKd,"MAGI2_4, Q86UL8; [2]",below the threshold
same,pKd,"GOPC, Q9HD26; [2]",below the threshold
same,pKd,"APBA1_1, Q02410; [2]",below the threshold
same,pKd,"FRMPD2_2, Q68DX3; [2]",below the threshold
same,pKd,"MPDZ_12, O75970; [2]",below the threshold
same,pKd,"MAGI3_2, Q5TCQ9; [2]",below the threshold
same,pKd,"NHERF4_2, Q86UT5; [2]",below the threshold
same,pKd,"LNX1_1, Q8TBB1; [2]",below the threshold
same,pKd,"SHANK1, Q9Y566; [2]",below the threshold
same,pKd,"PARD3B_1, Q8TEW8; [2]",below the threshold
same,pKd,"AHNAK1, Q09666; [2]",below the threshold
same,pKd,"Inadl_9, Q8NI35; [2]",below the threshold
same,pKd,"DLG5_1, Q8TDM6; [2]",below the threshold
same,pKd,"SCRIB_1, Q14160; [2]",below the threshold
same,pKd,"NHERF4_1, Q86UT5-2; [2]",below the threshold
same,pKd,"GRID2IP_1, A4D2P6; [2]",below the threshold
same,pKd,"APBA2_1, Q99767; [2]",below the threshold
same,pKd,"RAPGEF6, Q8TEU7; [2]",below the threshold
same,pKd,"MPDZ_5, O75970; [2]",below the threshold
same,pKd,"GRASP, Q7Z6J2; [2]",below the threshold
same,pKd,"DLG1_3, Q12959; [2]",below the threshold
same,pKd,"IL16_1, Q14005; [2]",below the threshold
same,pKd,"MPDZ_10, O75970; [2]",below the threshold
same,pKd,"ARHGAP21, Q5T5U3; [2]",below the threshold
same,pKd,"LAP2, Q96RT1; [2]",3.7
same,pKd,"RADIL, Q96JH8; [2]",below the threshold
"PVRVCEETSL [OTULIN, Q96BN8]",pKd,"MAGI2_4, Q86UL8; [3]",below the threshold
same,pKd,"GOPC, Q9HD26; [3]",4.44
same,pKd,"APBA1_1, Q02410; [3]",below the threshold
same,pKd,"FRMPD2_2, Q68DX3; [3]",3.51
same,pKd,"MPDZ_12, O75970; [3]",below the threshold
same,pKd,"MAGI3_2, Q5TCQ9; [3]",3.71
same,pKd,"NHERF4_2, Q86UT5; [3]",below the threshold
same,pKd,"LNX1_1, Q8TBB1; [3]",below the threshold
same,pKd,"SHANK1, Q9Y566; [3]",5.14
same,pKd,"PARD3B_1, Q8TEW8; [3]",4.09
same,pKd,"AHNAK1, Q09666; [3]",below the threshold
same,pKd,"Inadl_9, Q8NI35; [3]",below the threshold
same,pKd,"DLG5_1, Q8TDM6; [3]",3.52
same,pKd,"SCRIB_1, Q14160; [3]",5.44
same,pKd,"NHERF4_1, Q86UT5-2; [3]",4.02
same,pKd,"GRID2IP_1, A4D2P6; [3]",below the threshold
same,pKd,"APBA2_1, Q99767; [3]",below the threshold
same,pKd,"RAPGEF6, Q8TEU7; [3]",below the threshold
same,pKd,"MPDZ_5, O75970; [3]",below the threshold
same,pKd,"GRASP, Q7Z6J2; [3]",4.71
same,pKd,"DLG1_3, Q12959; [3]",4.14
same,pKd,"IL16_1, Q14005; [3]",3.53
same,pKd,"MPDZ_10, O75970; [3]",below the threshold
same,pKd,"ARHGAP21, Q5T5U3; [3]",4.2
same,pKd,"LAP2, Q96RT1; [3]",4.18
same,pKd,"RADIL, Q96JH8; [3]",below the threshold
"NLNSSRVPDLLV [SARS-CoV2-E, P0DTC4]",pKd,"MAGI2_4, Q86UL8; [4]",3.65
same,pKd,"GOPC, Q9HD26; [4]",below the threshold
same,pKd,"APBA1_1, Q02410; [4]",below the threshold
same,pKd,"FRMPD2_2, Q68DX3; [4]",below the threshold
same,pKd,"MPDZ_12, O75970; [4]",below the threshold
same,pKd,"MAGI3_2, Q5TCQ9; [4]",below the threshold
same,pKd,"NHERF4_2, Q86UT5; [4]",below the threshold
same,pKd,"LNX1_1, Q8TBB1; [4]",below the threshold
same,pKd,"SHANK1, Q9Y566; [4]",below the threshold
same,pKd,"PARD3B_1, Q8TEW8; [4]",below the threshold
same,pKd,"AHNAK1, Q09666; [4]",below the threshold
same,pKd,"Inadl_9, Q8NI35; [4]",below the threshold
same,pKd,"DLG5_1, Q8TDM6; [4]",below the threshold
same,pKd,"SCRIB_1, Q14160; [4]",below the threshold
same,pKd,"NHERF4_1, Q86UT5-2; [4]",below the threshold
same,pKd,"GRID2IP_1, A4D2P6; [4]",below the threshold
same,pKd,"APBA2_1, Q99767; [4]",below the threshold
same,pKd,"RAPGEF6, Q8TEU7; [4]",below the threshold
same,pKd,"MPDZ_5, O75970; [4]",below the threshold
same,pKd,"GRASP, Q7Z6J2; [4]",below the threshold
same,pKd,"DLG1_3, Q12959; [4]",below the threshold
same,pKd,"IL16_1, Q14005; [4]",below the threshold
same,pKd,"MPDZ_10, O75970; [4]",below the threshold
same,pKd,"ARHGAP21, Q5T5U3; [4]",below the threshold
same,pKd,"LAP2, Q96RT1; [4]",below the threshold
same,pKd,"RADIL, Q96JH8; [4]",3.76

# Source: paper PMC9482650, “Quantitative fragmentomics allow affinity mapping of interactomes” (Nature Communications, 2022)
